Assay results: IntAct's records for PubMed 17803912

B1: Lymphocyte antigen 96 (Homo sapiens), Q9Y6Y9 (parent)
chain: MLPFLFFSTLFSSIFTEAQKQYWVCNSSDASISYTYCDKMQYPISINVNPCIELKRSKGLLHIFYIPRRDLKQLYFNLYITVNTMNLPKRKEVICRGSDDDYSFCRALKGETVNTTISFSFKGIKFSKGKYKCVVEAISGSPEEMLFCLEFVILHQPNSN

Variants of: B1
Conditions: with tlr4_human TLR4, O00206
tlr4_human TLR4, O00206, sequence (O00206 whole entry): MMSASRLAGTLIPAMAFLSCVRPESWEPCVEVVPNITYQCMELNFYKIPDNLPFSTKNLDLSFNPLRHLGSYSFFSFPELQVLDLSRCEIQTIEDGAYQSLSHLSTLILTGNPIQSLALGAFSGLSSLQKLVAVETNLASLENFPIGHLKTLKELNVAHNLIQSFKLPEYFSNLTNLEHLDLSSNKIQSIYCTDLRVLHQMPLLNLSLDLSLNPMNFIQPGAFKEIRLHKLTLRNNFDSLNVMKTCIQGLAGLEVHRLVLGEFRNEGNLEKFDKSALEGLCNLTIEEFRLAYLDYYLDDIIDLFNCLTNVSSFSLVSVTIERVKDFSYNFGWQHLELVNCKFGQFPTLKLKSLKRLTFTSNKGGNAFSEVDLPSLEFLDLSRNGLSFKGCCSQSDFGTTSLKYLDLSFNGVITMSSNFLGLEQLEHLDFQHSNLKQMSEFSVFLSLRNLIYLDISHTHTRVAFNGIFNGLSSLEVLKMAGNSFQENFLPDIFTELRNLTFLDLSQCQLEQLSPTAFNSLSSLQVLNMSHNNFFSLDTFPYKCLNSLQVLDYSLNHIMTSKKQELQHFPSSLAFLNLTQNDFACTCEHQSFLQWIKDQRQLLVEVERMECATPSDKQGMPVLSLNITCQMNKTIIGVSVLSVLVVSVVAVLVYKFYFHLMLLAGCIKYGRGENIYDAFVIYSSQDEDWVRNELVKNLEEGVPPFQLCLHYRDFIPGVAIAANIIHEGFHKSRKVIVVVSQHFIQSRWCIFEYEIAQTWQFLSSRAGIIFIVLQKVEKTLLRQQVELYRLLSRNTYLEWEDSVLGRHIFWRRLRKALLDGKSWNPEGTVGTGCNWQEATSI

Row | effect of a mutation on the interaction | Variant
1 | disrupting interaction | MLPFLFFSTLFSSIFTEAQKQYWVCNSSDASISYTYCDKMQYPISINVNPCIELKRSKGLLHIFYIPRRDLKQLYFNLYITVNTMNLPKRKEVICRGSDDDYSFCRALKGETVNTTISFSFKGIKFSKGKYKCVVEAISGSPEEMLFCLEFVILAQPNSN
2 | disrupting interaction | MLPFLFFSTLFSSIFTEAQKQYWVCNSSDASISYTYCDKMQYPISINVNPCIELKRSKGLLHIFYIPRRDLKQLYFNLYITVNTMNLPKRKEVICRGSDDDYSFCRALKGETVNTTISFSFKGIKASKGKYKCVVEAISGSPEEMLFCLEFVILHQPNSN
